Common to all, as to assay: cross-linking; in vivo BMOE cross-link of cysteine pairs in exponentially grown yeast cells (on ice, 6 min); Scc1-PK immunoprecipitated, western blot
Details in all cases: partners not purified
Background: In western blotting, separated proteins are transferred to a membrane and probed.

In one assay the target is T1, Smc3 K38I R1222C (S. cerevisiae, UniProt P47037 1-1230, K38I | R1222C).
T1 construct: source: S. cerevisiae W303, in vivo, whole-cell extract
T1 sequence (looked up): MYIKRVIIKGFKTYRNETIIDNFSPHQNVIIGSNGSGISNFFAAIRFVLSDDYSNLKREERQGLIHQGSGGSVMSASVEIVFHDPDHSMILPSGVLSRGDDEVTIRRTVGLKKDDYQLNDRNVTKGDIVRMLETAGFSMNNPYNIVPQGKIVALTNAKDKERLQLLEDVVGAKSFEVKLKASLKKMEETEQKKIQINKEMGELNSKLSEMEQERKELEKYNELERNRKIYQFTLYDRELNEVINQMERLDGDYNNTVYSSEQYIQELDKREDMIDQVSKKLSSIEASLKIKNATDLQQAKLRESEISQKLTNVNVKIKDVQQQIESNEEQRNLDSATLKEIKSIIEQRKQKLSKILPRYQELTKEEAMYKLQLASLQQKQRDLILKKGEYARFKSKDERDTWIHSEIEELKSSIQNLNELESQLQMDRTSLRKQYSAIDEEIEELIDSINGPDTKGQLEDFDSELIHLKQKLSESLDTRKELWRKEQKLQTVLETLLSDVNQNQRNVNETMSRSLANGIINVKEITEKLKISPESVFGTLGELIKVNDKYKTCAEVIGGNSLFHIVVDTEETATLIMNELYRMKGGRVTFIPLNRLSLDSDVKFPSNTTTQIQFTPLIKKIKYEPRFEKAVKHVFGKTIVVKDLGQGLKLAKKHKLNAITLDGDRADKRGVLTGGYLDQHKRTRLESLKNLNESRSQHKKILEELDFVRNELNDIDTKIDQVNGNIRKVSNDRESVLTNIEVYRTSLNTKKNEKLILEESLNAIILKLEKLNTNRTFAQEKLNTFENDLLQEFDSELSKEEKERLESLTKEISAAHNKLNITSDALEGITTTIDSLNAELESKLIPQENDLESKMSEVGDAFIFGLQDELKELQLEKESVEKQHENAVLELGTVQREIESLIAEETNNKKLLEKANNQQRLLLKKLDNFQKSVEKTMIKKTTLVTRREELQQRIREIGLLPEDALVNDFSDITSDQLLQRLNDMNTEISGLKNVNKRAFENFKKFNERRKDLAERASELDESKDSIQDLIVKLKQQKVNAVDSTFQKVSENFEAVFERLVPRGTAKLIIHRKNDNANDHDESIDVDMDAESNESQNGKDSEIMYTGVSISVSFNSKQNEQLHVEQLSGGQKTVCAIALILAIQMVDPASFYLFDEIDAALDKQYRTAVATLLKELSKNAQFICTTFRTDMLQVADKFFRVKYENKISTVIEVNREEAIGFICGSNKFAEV

A further assay concerns the target T2, Smc3^QQ R1222C (S. cerevisiae, UniProt P47037 1-1230, K112Q | K113Q | R1222C).
T2 construct: Smc3, S. cerevisiae; source: S. cerevisiae W303, in vivo, whole-cell extract
T2 sequence (looked up): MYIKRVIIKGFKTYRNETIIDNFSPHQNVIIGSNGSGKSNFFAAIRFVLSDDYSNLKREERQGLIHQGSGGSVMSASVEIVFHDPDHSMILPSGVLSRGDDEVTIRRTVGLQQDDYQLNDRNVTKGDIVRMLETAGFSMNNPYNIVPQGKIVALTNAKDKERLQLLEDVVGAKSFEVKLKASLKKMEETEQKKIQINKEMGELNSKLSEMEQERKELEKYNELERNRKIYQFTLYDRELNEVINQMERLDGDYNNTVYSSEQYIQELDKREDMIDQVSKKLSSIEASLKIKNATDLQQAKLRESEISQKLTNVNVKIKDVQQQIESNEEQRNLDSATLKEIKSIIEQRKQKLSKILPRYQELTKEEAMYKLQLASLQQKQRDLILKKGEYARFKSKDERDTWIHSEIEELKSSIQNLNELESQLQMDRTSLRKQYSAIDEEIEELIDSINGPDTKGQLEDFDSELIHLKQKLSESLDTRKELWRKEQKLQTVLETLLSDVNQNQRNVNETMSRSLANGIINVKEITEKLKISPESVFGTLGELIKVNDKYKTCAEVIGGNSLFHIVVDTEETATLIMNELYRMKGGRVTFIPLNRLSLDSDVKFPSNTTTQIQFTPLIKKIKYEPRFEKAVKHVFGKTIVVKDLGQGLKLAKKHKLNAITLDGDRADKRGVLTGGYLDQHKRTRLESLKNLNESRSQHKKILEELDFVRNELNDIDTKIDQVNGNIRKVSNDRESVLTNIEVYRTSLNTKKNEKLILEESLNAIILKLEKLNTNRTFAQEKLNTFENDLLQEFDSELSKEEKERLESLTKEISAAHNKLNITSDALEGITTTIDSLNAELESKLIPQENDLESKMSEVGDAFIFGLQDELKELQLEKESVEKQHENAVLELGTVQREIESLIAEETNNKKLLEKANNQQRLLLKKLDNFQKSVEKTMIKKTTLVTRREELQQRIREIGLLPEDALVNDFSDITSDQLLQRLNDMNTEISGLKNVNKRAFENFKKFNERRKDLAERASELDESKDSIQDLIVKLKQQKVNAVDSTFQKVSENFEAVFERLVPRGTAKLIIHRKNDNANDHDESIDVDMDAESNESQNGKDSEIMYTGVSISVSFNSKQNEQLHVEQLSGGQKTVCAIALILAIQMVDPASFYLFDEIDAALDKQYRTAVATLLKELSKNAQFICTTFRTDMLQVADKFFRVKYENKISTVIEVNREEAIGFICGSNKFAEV

For the next assay, the target named is T3, Smc3 R1222C (S. cerevisiae, UniProt P47037 1-1230, R1222C).
T3 construct: Smc3, S. cerevisiae; source: S. cerevisiae W303, in vivo, whole-cell extract
T3 sequence (looked up): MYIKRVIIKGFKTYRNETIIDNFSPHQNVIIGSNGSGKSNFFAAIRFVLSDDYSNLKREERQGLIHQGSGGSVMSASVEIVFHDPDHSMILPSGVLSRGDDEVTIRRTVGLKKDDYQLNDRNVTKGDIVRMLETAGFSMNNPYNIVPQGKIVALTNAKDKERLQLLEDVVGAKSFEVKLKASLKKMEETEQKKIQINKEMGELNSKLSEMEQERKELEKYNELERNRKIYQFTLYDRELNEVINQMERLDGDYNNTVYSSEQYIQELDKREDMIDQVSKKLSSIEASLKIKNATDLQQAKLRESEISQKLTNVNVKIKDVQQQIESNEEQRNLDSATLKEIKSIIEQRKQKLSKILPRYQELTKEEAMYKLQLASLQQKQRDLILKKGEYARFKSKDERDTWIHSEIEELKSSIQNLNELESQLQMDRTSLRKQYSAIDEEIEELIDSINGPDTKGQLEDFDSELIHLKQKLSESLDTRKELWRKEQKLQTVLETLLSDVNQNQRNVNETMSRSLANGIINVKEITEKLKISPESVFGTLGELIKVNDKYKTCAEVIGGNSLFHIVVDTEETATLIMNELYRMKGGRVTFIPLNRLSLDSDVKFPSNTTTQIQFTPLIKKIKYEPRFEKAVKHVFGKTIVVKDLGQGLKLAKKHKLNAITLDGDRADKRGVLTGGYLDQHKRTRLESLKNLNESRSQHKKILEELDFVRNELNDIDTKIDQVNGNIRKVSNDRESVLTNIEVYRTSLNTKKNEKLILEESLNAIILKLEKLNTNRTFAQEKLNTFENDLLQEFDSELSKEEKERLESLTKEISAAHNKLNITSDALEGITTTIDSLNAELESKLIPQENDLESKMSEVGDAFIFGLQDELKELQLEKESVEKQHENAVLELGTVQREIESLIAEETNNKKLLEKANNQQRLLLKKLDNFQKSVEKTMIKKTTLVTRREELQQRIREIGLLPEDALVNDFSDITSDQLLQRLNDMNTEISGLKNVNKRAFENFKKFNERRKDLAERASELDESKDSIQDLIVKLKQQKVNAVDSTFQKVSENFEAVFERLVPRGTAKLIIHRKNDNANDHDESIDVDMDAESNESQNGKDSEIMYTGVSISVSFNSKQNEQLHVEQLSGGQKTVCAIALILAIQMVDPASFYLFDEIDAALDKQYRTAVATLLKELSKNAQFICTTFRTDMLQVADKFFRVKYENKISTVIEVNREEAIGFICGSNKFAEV

B1: Smc1 N1192C (natural protein, S. cerevisiae, UniProt P32908 1-1225, looked up)
chain: MGRLVGLELSNFKSYRGVTKVGFGESNFTSIIGPNGSGKSNMMDAISFVLGVRSNHLRSNILKDLIYRGVLNDENSDDYDNEGAASSNPQSAYVKAFYQKGNKLVELMRIISRNGDTSYKIDGKTVSYKDYSIFLENENILIKAKNFLVFQGDVEQIAAQSPVELSRMFEEVSGSIQYKKEYEELKEKIEKLSKSATESIKNRRRIHGELKTYKEGINKNEEYRKQLDKKNELQKFQALWQLYHLEQQKEELTDKLSALNSEISSLKGKINNEMKSLQRSKSSFVKESAVISKQKSKLDYIFKDKEKLVSDLRLIKVPQQAAGKRISHIEKRIESLQKDLQRQKTYVERFETQLKVVTRSKEAFEEEIKQSARNYDKFKLNENDLKTYNCLHEKYLTEGGSILEEKIAVLNNDKREIQEELERFNKRADISKRRITEELSITGEKLDTQLNDLRVSLNEKNALHTERLHELKKLQSDIESANNQEYDLNFKLRETLVKIDDLSANQRETMKERKLRENIAMLKRFFPGVKGLVHDLCHPKKEKYGLAVSTILGKNFDSVIVENLTVAQECIAFLKKQRAGTASFIPLDTIETELPTLSLPDSQDYILSINAIDYEPEYEKAMQYVCGDSIICNTLNIAKDLKWKKGIRGKLVTIEGALIHKAGLMTGGISGDANNRWDKEEYQSLMSLKDKLLIQIDELSNGQRSNSIRAREVENSVSLLNSDIANLRTQVTQQKRSLDENRLEIKYHNDLIEKEIQPKITELKKKLDDLENTKDNLVKEKEALQNNIFKEFTSKIGFTIKEYENHSGELMRQQSKELQQLQKQILTVENKLQFETDRLSTTQRRYEKAQKDLENAQVEMKSLEEQEYAIEMKIGSIESKLEEHKNHLDELQKKFVTKQSELNSSEDILEDMNSNLQVLKRERDGIKEDIEKFDLERVTALKNCKISNINIPISSETTIDDLPISSTDNEAITISNSIDINYKGLPKKYKENNTDSARKELEQKIHEVEEILNELQPNARALERYDEAEGRFEVINNETEQLKAEEKKILNQFLKIKKKRKELFEKTFDYVSDHLDAIYRELTKNPNSNVELAGGNASLTIEDEDEPFNAGIKYHATPPLKRFKDMEYLSGGEKTVAALALLFAINSYQPSPFFVLDEVDAALDITNVQRIAAYIRRHRNPDLQFIVISLKCTMFEKSDALVGVYRQQQENSSKIITLDLSNYAE
notes: Smc1, S. cerevisiae; source: S. cerevisiae W303, in vivo, whole-cell extract
As for B1, the results for the crosslinking efficiency with Smc3 K38I R1222C, with Smc3^QQ R1222C and with Smc3 R1222C were 5%, 24% and roughly 23%, respectively.
